# Assay results as given in article PMC3328385 (The Journal of Cell Biology, 2012).
# How the values were obtained:
# [1] = target: t-SNAREs: syntaxin-1A/SNAP-25B, coexpressed, reconstituted in liposomes or supported bilayers (rat | mouse, UniProt P32851;P60879); assay: liposome coflotation
# native gel or EMSA = target: the molecule itself; assay: native gel or EMSA
# Chain of t-SNAREs: syntaxin-1A/SNAP-25B, coexpressed, reconstituted in liposomes or supported bilayers (P32851 whole entry, chain 1 of 2): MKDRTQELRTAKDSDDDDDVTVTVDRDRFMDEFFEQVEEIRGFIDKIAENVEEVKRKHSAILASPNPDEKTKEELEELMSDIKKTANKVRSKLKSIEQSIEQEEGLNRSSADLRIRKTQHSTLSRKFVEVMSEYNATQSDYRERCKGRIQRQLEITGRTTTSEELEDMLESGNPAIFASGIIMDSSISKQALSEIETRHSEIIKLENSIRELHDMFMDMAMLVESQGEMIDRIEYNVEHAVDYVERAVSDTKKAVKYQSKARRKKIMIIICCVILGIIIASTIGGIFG
# Chain of t-SNAREs: syntaxin-1A/SNAP-25B, coexpressed, reconstituted in liposomes or supported bilayers (P60879 whole entry, chain 2 of 2): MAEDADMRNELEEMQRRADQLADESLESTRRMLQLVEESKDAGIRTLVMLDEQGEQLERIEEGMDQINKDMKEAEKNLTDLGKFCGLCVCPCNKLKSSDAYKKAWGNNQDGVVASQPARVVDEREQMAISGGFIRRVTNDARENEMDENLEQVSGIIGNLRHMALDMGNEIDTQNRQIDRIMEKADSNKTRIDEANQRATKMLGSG
Binder,fold increase in binding with Ca2+ against no Ca2+ [1] [fold],binding result (native gel or EMSA),binding result [1]
"Munc13-4 (wild type, His6-tagged human Munc13-4) (natural protein) MATLLSHPQQRPPFLRQAIKIRRRRVRDLQDPPPQMAPEIQPPSHHFSPEQRALLYEDALYTVLHRLGHPEPNHVTEASELLRYLQEAFHVEPEEHQQTLQRVRELEKPIFCLKATVKQAKGILGKDVSGFSDPYCLLGIEQGVGVPGGSPGSRHRQKAVVRHTIPEEETHRTQVITQTLNPVWDETFILEFEDITNASFHLDMWDLDTVESVRQKLGELTDLHGLRRIFKEARKDKGQDDFLGNVVLRLQDLRCREDQWYPLEPRTETYPDRGQCHLQFQLIHKRRATSASRSQPSYTVHLHLLQQLVSHEVTQHEAGSTSWDGSLSPQAATVLFLHATQKDLSDFHQSMAQWLAYSRLYQSLEFPSSCLLHPITSIEYQWIQGRLKAEQQEELAASFSSLLTYGLSLIRRFRSVFPLSVSDSPARLQSLLRVLVQMCKMKAFGELCPNTAPLPQLVTEALQTGTTEWFHLKQQHHQPMVQGIPEAGKALLGLVQDVIGDLHQCQRTWDKIFHNTLKIHLFSMAFRELQWLVAKRVQDHTTVVGDVVSPEMGESLFQLYISLKELCQLRMSSSERDGVLALDNFHRWFQPAIPSWLQKTYNEALARVQRAVQMDELVPLGELTKHSTSAVDLSTCFAQISHTARQLDWPDPEEAFMITVKFVEDTCRLALVYCSLIKARARELSSGQKDQGQAANMLCVVVNDMEQLRLVIGKLPAQLAWEALEQRVGAVLEQGQLQNTLHAQLQSALAGLGHEIRTGVRTLAEQLEVGIAKHIQKLVGVRESVLPEDAILPLMKFLEVELCYMNTNLVQENFSSLLTLLWTHTLTVLVEAAASQRSSSLASNRLKIALQNLEICFHAEGCGLPPKALHTATFQALQRDLELQAASSRELIRKYFCSRIQQQAETTSEELGAVTVKASYRASEQKLRVELLSASSLLPLDSNGSSDPFVQLTLEPRHEFPELAARETQKHKKDLHPLFDETFEFLVPAEPCRKAGACLLLTVLDYDTLGADDLEGEAFLPLREVPGLSGSEEPGEVPQTRLPLTYPAPNGDPILQLLEGRKGDREAQVFVRLRRHRAKQASQHALRPAP",2.5,,
C2A* Munc13-4 (D127N/D133N) (natural protein) MATLLSHPQQRPPFLRQAIKIRRRRVRDLQDPPPQMAPEIQPPSHHFSPEQRALLYEDALYTVLHRLGHPEPNHVTEASELLRYLQEAFHVEPEEHQQTLQRVRELEKPIFCLKATVKQAKGILGKNVSGFSNPYCLLGIEQGVGVPGGSPGSRHRQKAVVRHTIPEEETHRTQVITQTLNPVWDETFILEFEDITNASFHLDMWDLDTVESVRQKLGELTDLHGLRRIFKEARKDKGQDDFLGNVVLRLQDLRCREDQWYPLEPRTETYPDRGQCHLQFQLIHKRRATSASRSQPSYTVHLHLLQQLVSHEVTQHEAGSTSWDGSLSPQAATVLFLHATQKDLSDFHQSMAQWLAYSRLYQSLEFPSSCLLHPITSIEYQWIQGRLKAEQQEELAASFSSLLTYGLSLIRRFRSVFPLSVSDSPARLQSLLRVLVQMCKMKAFGELCPNTAPLPQLVTEALQTGTTEWFHLKQQHHQPMVQGIPEAGKALLGLVQDVIGDLHQCQRTWDKIFHNTLKIHLFSMAFRELQWLVAKRVQDHTTVVGDVVSPEMGESLFQLYISLKELCQLRMSSSERDGVLALDNFHRWFQPAIPSWLQKTYNEALARVQRAVQMDELVPLGELTKHSTSAVDLSTCFAQISHTARQLDWPDPEEAFMITVKFVEDTCRLALVYCSLIKARARELSSGQKDQGQAANMLCVVVNDMEQLRLVIGKLPAQLAWEALEQRVGAVLEQGQLQNTLHAQLQSALAGLGHEIRTGVRTLAEQLEVGIAKHIQKLVGVRESVLPEDAILPLMKFLEVELCYMNTNLVQENFSSLLTLLWTHTLTVLVEAAASQRSSSLASNRLKIALQNLEICFHAEGCGLPPKALHTATFQALQRDLELQAASSRELIRKYFCSRIQQQAETTSEELGAVTVKASYRASEQKLRVELLSASSLLPLDSNGSSDPFVQLTLEPRHEFPELAARETQKHKKDLHPLFDETFEFLVPAEPCRKAGACLLLTVLDYDTLGADDLEGEAFLPLREVPGLSGSEEPGEVPQTRLPLTYPAPNGDPILQLLEGRKGDREAQVFVRLRRHRAKQASQHALRPAP,,binds,binds
C2A*B* Munc13-4 (D127N/D133N/D941N/D947N) (natural protein) MATLLSHPQQRPPFLRQAIKIRRRRVRDLQDPPPQMAPEIQPPSHHFSPEQRALLYEDALYTVLHRLGHPEPNHVTEASELLRYLQEAFHVEPEEHQQTLQRVRELEKPIFCLKATVKQAKGILGKNVSGFSNPYCLLGIEQGVGVPGGSPGSRHRQKAVVRHTIPEEETHRTQVITQTLNPVWDETFILEFEDITNASFHLDMWDLDTVESVRQKLGELTDLHGLRRIFKEARKDKGQDDFLGNVVLRLQDLRCREDQWYPLEPRTETYPDRGQCHLQFQLIHKRRATSASRSQPSYTVHLHLLQQLVSHEVTQHEAGSTSWDGSLSPQAATVLFLHATQKDLSDFHQSMAQWLAYSRLYQSLEFPSSCLLHPITSIEYQWIQGRLKAEQQEELAASFSSLLTYGLSLIRRFRSVFPLSVSDSPARLQSLLRVLVQMCKMKAFGELCPNTAPLPQLVTEALQTGTTEWFHLKQQHHQPMVQGIPEAGKALLGLVQDVIGDLHQCQRTWDKIFHNTLKIHLFSMAFRELQWLVAKRVQDHTTVVGDVVSPEMGESLFQLYISLKELCQLRMSSSERDGVLALDNFHRWFQPAIPSWLQKTYNEALARVQRAVQMDELVPLGELTKHSTSAVDLSTCFAQISHTARQLDWPDPEEAFMITVKFVEDTCRLALVYCSLIKARARELSSGQKDQGQAANMLCVVVNDMEQLRLVIGKLPAQLAWEALEQRVGAVLEQGQLQNTLHAQLQSALAGLGHEIRTGVRTLAEQLEVGIAKHIQKLVGVRESVLPEDAILPLMKFLEVELCYMNTNLVQENFSSLLTLLWTHTLTVLVEAAASQRSSSLASNRLKIALQNLEICFHAEGCGLPPKALHTATFQALQRDLELQAASSRELIRKYFCSRIQQQAETTSEELGAVTVKASYRASEQKLRVELLSASSLLPLNSNGSSNPFVQLTLEPRHEFPELAARETQKHKKDLHPLFDETFEFLVPAEPCRKAGACLLLTVLDYDTLGADDLEGEAFLPLREVPGLSGSEEPGEVPQTRLPLTYPAPNGDPILQLLEGRKGDREAQVFVRLRRHRAKQASQHALRPAP,,binds,binds
C2B* Munc13-4 (D941N/D947N) (natural protein) MATLLSHPQQRPPFLRQAIKIRRRRVRDLQDPPPQMAPEIQPPSHHFSPEQRALLYEDALYTVLHRLGHPEPNHVTEASELLRYLQEAFHVEPEEHQQTLQRVRELEKPIFCLKATVKQAKGILGKDVSGFSDPYCLLGIEQGVGVPGGSPGSRHRQKAVVRHTIPEEETHRTQVITQTLNPVWDETFILEFEDITNASFHLDMWDLDTVESVRQKLGELTDLHGLRRIFKEARKDKGQDDFLGNVVLRLQDLRCREDQWYPLEPRTETYPDRGQCHLQFQLIHKRRATSASRSQPSYTVHLHLLQQLVSHEVTQHEAGSTSWDGSLSPQAATVLFLHATQKDLSDFHQSMAQWLAYSRLYQSLEFPSSCLLHPITSIEYQWIQGRLKAEQQEELAASFSSLLTYGLSLIRRFRSVFPLSVSDSPARLQSLLRVLVQMCKMKAFGELCPNTAPLPQLVTEALQTGTTEWFHLKQQHHQPMVQGIPEAGKALLGLVQDVIGDLHQCQRTWDKIFHNTLKIHLFSMAFRELQWLVAKRVQDHTTVVGDVVSPEMGESLFQLYISLKELCQLRMSSSERDGVLALDNFHRWFQPAIPSWLQKTYNEALARVQRAVQMDELVPLGELTKHSTSAVDLSTCFAQISHTARQLDWPDPEEAFMITVKFVEDTCRLALVYCSLIKARARELSSGQKDQGQAANMLCVVVNDMEQLRLVIGKLPAQLAWEALEQRVGAVLEQGQLQNTLHAQLQSALAGLGHEIRTGVRTLAEQLEVGIAKHIQKLVGVRESVLPEDAILPLMKFLEVELCYMNTNLVQENFSSLLTLLWTHTLTVLVEAAASQRSSSLASNRLKIALQNLEICFHAEGCGLPPKALHTATFQALQRDLELQAASSRELIRKYFCSRIQQQAETTSEELGAVTVKASYRASEQKLRVELLSASSLLPLNSNGSSNPFVQLTLEPRHEFPELAARETQKHKKDLHPLFDETFEFLVPAEPCRKAGACLLLTVLDYDTLGADDLEGEAFLPLREVPGLSGSEEPGEVPQTRLPLTYPAPNGDPILQLLEGRKGDREAQVFVRLRRHRAKQASQHALRPAP,,binds,binds
